Laboratory results taken from the supplement of paper PMC7877785.
± gives the uncertainty stated by the source.

Test: self-splicing fitness, log relative to wild type (ln ratio); higher = more splicing; Tetrahymena group I intron in knt gene, E. coli kanamycin selection, DiMSum; sequences stand for … in CUCUCU…GGAGGGAAAAGUUAUCAGGCAUGCACCUGGUAGCUAGUCUUUAAACCAAUAGAUUGCAUCGGUUUAAAAGGCAAGACCGUCAAAUUGCGGGAAAGGGGUCAACAGCCGUUCAGUACCAAGUCUCAGGGGAAACUUUGAGAUGGCCUUGCAAAGGGUAUGGUAAUAAGCUGACGGACAUGGUCCUAACCACGCAGCCAAGUCCUAAGUCAACAGAUCUUCUGUUGAUAUGGAUGCAGUUCACAGACUAAAUGUCGGUCGGGGAAGAUGUAUUCUUCUCAUAAGAUAUAGUCGGACCUCUCCUUAAUGGGAGCUAGCGGAUGAAGUGAUGCAACACUGGAGCCGCUGGGAACUAAUUUGUAUGCGAAAGUAUAUUGAUUAGUUUUGGAGUACUCGUGGUCG
Summary of the method: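 DiMSum derived fitness as the error-weighted combination of fold changes across replicates, kanamycin versus no kanamycin, normalised to wild type. E. coli BL21(DE3) held the library, which randomised all eight P1ex-region intron nucleotides within the knt kanamycin-resistance gene on pET-22b(+). Six replicate transformations grew overnight at 37°C or 30°C on LB agar with or without 25 μg/mL kanamycin, also containing 100 μg/mL carbenicillin, 50 μM IPTG and 0.2% rhamnose, and pooled colonies were amplicon-sequenced on an Illumina HiSeq 2500.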

Row | Sequence | self-splicing fitness (ln) (30 °C) | self-splicing fitness (ln) (37 °C)
1 | CAUAAGCAAUAUUACGAUCA | -2.28 ± 0.21 | -1.87 ± 0.2
2 | CAUAAGCAAUAUUACGAUGA | -2.58 ± 0.14 | -0.929 ± 0.13
3 | CAUAAGCAAUAUUACGCCUC | -2.88 ± 0.39 | -1.75 ± 0.41
4 | CAUAAGCAAUAUUACGCCUU | -3.7 ± 0.19 | -1.96 ± 0.17
5 | CAUAAGCAAUAUUACGCGUG | -3.79 ± 0.26 | -2.88 ± 0.2
6 | CAUAAGCAAUAUUACGCUAA | -2.58 ± 0.3 | -0.864 ± 0.24
7 | CAUAAGCAAUAUUACGCUAC | – | -1.79 ± 0.21
8 | CAUAAGCAAUAUUACGCUUU | -3.86 ± 0.26 | -2.73 ± 0.24
9 | CAUAAGCAAUAUUACGGCCA | -2.38 ± 0.26 | -2.62 ± 0.29
10 | CAUAAGCAAUAUUACGGCGA | -1.96 ± 0.18 | -0.178 ± 0.15
11 | CAUAAGCAAUAUUACGGGAA | -2.98 ± 0.21 | -2.23 ± 0.16
12 | CAUAAGCAAUAUUACGUACU | – | -2 ± 0.32
13 | CAUAAGCAAUAUUACGUAUG | -3.87 ± 0.2 | -2.74 ± 0.23
14 | CAUAAGCAAUAUUACGUCAU | -3.67 ± 0.19 | -2.19 ± 0.19
15 | CAUAAGCAAUAUUACGUGCA | -3.45 ± 0.23 | -2.4 ± 0.18
16 | CAUAAGCAAUAUUACGUGGG | -3.38 ± 0.12 | -3.49 ± 0.18
17 | CAUAAGCAAUAUUACGUUGA | -3.55 ± 0.16 | -2.85 ± 0.16
18 | CAUAAGCAAUAUUACGUUUA | -2.97 ± 0.23 | -2.42 ± 0.28
19 | CAUCAGCAAUAUUACGAAGA | -2.97 ± 0.27 | -0.441 ± 0.15
20 | CAUCAGCAAUAUUACGAAGC | -3.23 ± 0.47 | -2.2 ± 0.41
21 | CAUCAGCAAUAUUACGACGA | -1.38 ± 0.16 | -0.863 ± 0.14
22 | CAUCAGCAAUAUUACGAGAC | -3.95 ± 0.23 | -2.73 ± 0.16
23 | CAUCAGCAAUAUUACGAGCU | -1.92 ± 0.26 | -2.3 ± 0.47
24 | CAUCAGCAAUAUUACGAUUC | -1.62 ± 0.071 | -0.269 ± 0.073
25 | CAUCAGCAAUAUUACGCAAC | – | -1.59 ± 0.28

Row | Sequence | self-splicing fitness (ln) (30 °C) | self-splicing fitness (ln) (37 °C)
26 | CAUCAGCAAUAUUACGCCUG | -0.718 ± 0.092 | -0.495 ± 0.098
27 | CAUCAGCAAUAUUACGCCUU | -1.92 ± 0.12 | -0.379 ± 0.12
28 | CAUCAGCAAUAUUACGCUCA | -1.55 ± 0.18 | -0.924 ± 0.16
29 | CAUCAGCAAUAUUACGCUUG | -2.08 ± 0.084 | -1.03 ± 0.098
30 | CAUCAGCAAUAUUACGGACG | -0.594 ± 0.053 | -0.172 ± 0.08
31 | CAUCAGCAAUAUUACGGCGC | -2.95 ± 0.13 | -0.694 ± 0.15
32 | CAUCAGCAAUAUUACGGGCG | -0.567 ± 0.069 | -0.377 ± 0.074
33 | CAUCAGCAAUAUUACGGGUC | -2.63 ± 0.11 | -0.644 ± 0.1
34 | CAUCAGCAAUAUUACGGGUU | -1.8 ± 0.067 | -0.61 ± 0.08
35 | CAUCAGCAAUAUUACGGUAG | -0.362 ± 0.075 | 0.051 ± 0.085
36 | CAUCAGCAAUAUUACGUAUC | -1.9 ± 0.092 | -1.05 ± 0.098
37 | CAUCAGCAAUAUUACGUGCU | -3.71 ± 0.28 | -2.46 ± 0.21
38 | CAUCAGCAAUAUUACGUUGU | -3.52 ± 0.14 | -2.92 ± 0.16
39 | CAUGAGCAAUAUUACGAAGG | -3.17 ± 0.19 | -2.05 ± 0.21
40 | CAUGAGCAAUAUUACGACAG | -1.89 ± 0.13 | -1.02 ± 0.15
41 | CAUGAGCAAUAUUACGACCU | -2.47 ± 0.29 | -0.931 ± 0.26
42 | CAUGAGCAAUAUUACGACUG | -1.78 ± 0.13 | -0.743 ± 0.18
43 | CAUGAGCAAUAUUACGAGGU | -3.26 ± 0.33 | -3.11 ± 0.4
44 | CAUGAGCAAUAUUACGAUCG | -0.0708 ± 0.12 | -0.399 ± 0.14
45 | CAUGAGCAAUAUUACGCACG | -0.622 ± 0.097 | -0.67 ± 0.11
46 | CAUGAGCAAUAUUACGCCUC | – | -1.75 ± 0.42
47 | CAUGAGCAAUAUUACGCCUG | -2.93 ± 0.21 | -2.02 ± 0.35
48 | CAUGAGCAAUAUUACGCGAC | – | -2.84 ± 0.44
49 | CAUGAGCAAUAUUACGCGUG | -4.92 ± 0.36 | -2.71 ± 0.26
50 | CAUGAGCAAUAUUACGCUAA | – | -2.94 ± 0.43

Row | Sequence | self-splicing fitness (ln) (30 °C) | self-splicing fitness (ln) (37 °C)
51 | CAUGAGCAAUAUUACGGCAU | -3.35 ± 0.34 | -2.9 ± 0.47
52 | CAUGAGCAAUAUUACGGGAC | -2.99 ± 0.18 | -1.95 ± 0.24
53 | CAUGAGCAAUAUUACGGGCG | -0.135 ± 0.075 | 0.178 ± 0.092
54 | CAUGAGCAAUAUUACGGUAG | -2.01 ± 0.1 | -0.949 ± 0.11
55 | CAUGAGCAAUAUUACGGUCC | -3.81 ± 0.37 | –
56 | CAUGAGCAAUAUUACGGUGC | -3.35 ± 0.28 | -3 ± 0.26
57 | CAUGAGCAAUAUUACGGUGU | -4.27 ± 0.28 | -2.54 ± 0.23
58 | CAUGAGCAAUAUUACGGUUG | -1.97 ± 0.094 | -0.986 ± 0.12
59 | CAUGAGCAAUAUUACGUAGA | -4.22 ± 0.27 | -2.77 ± 0.21
60 | CAUGAGCAAUAUUACGUAGC | -1.64 ± 0.17 | -1.96 ± 0.26
61 | CAUGAGCAAUAUUACGUCAG | -1.35 ± 0.095 | -1.13 ± 0.12
62 | CAUGAGCAAUAUUACGUGAC | -3.75 ± 0.25 | –
63 | CAUGAGCAAUAUUACGUGCG | -1.75 ± 0.077 | -0.908 ± 0.083
64 | CAUGAGCAAUAUUACGUUGA | -2.92 ± 0.18 | -3.4 ± 0.29
65 | CAUUAGCAAUAUUACGAAUG | -2.67 ± 0.19 | -2.28 ± 0.3
66 | CAUUAGCAAUAUUACGACAC | -2.3 ± 0.2 | -1.89 ± 0.23
67 | CAUUAGCAAUAUUACGACAU | -3.364 ± 0.024 | -1.97 ± 0.036
68 | CAUUAGCAAUAUUACGACUA | -1.75 ± 0.49 | –
69 | CAUUAGCAAUAUUACGACUU | -1.99 ± 0.16 | -1.71 ± 0.18
70 | CAUUAGCAAUAUUACGAGAG | -2.5 ± 0.19 | -2.63 ± 0.21
71 | CAUUAGCAAUAUUACGAUAC | -3.07 ± 0.47 | -2.23 ± 0.43
72 | CAUUAGCAAUAUUACGAUUU | -2.32 ± 0.13 | -1.56 ± 0.15
73 | CAUUAGCAAUAUUACGCAGA | – | -1.78 ± 0.31
74 | CAUUAGCAAUAUUACGCGGG | -1.95 ± 0.3 | 0.421 ± 0.2
75 | CAUUAGCAAUAUUACGCUCC | – | -1.18 ± 0.38

Row | Sequence | self-splicing fitness (ln) (30 °C) | self-splicing fitness (ln) (37 °C)
76 | CAUUAGCAAUAUUACGGCCA | -2.3 ± 0.28 | –
77 | CAUUAGCAAUAUUACGGGAU | -3.2 ± 0.19 | -2.92 ± 0.23
78 | CAUUAGCAAUAUUACGGGCA | -2.73 ± 0.27 | -1.1 ± 0.16
79 | CAUUAGCAAUAUUACGGUGA | -2.79 ± 0.19 | -1.92 ± 0.13
80 | CAUUAGCAAUAUUACGUCAG | -0.381 ± 0.091 | -0.0898 ± 0.098
81 | CAUUAGCAAUAUUACGUGAA | -2.94 ± 0.21 | -3.18 ± 0.29
82 | CAUUAGCAAUAUUACGUGGU | -4.46 ± 0.21 | -2.6 ± 0.16
83 | CCAAAGCAAUAUUACGAACC | -3.78 ± 0.47 | -1.5 ± 0.34
84 | CCAAAGCAAUAUUACGAGCA | -3.64 ± 0.23 | -3.23 ± 0.26
85 | CCAAAGCAAUAUUACGAGUA | -3.15 ± 0.23 | -2.6 ± 0.23
86 | CCAAAGCAAUAUUACGCAGC | -3.4 ± 0.26 | -2.49 ± 0.33
87 | CCAAAGCAAUAUUACGCAUG | -1.22 ± 0.063 | -0.772 ± 0.084
88 | CCAAAGCAAUAUUACGCCAG | -1.3 ± 0.1 | -0.0837 ± 0.13
89 | CCAAAGCAAUAUUACGCGCA | -3.48 ± 0.28 | -3.13 ± 0.24
90 | CCAAAGCAAUAUUACGGCGC | -3.65 ± 0.34 | -2.49 ± 0.29
91 | CCAAAGCAAUAUUACGGUUC | -2.91 ± 0.12 | -2.34 ± 0.2
92 | CCAAAGCAAUAUUACGUCGC | -3.49 ± 0.18 | -2.29 ± 0.18
93 | CCAAAGCAAUAUUACGUCGU | -3.82 ± 0.19 | -2.75 ± 0.23
94 | CCAAAGCAAUAUUACGUCUG | -0.9 ± 0.054 | -0.302 ± 0.066
95 | CCAAAGCAAUAUUACGUGCC | -3.77 ± 0.35 | -2.31 ± 0.35
96 | CCAAAGCAAUAUUACGUGUC | -3.56 ± 0.21 | -3.6 ± 0.29
97 | CCAAAGCAAUAUUACGUUGG | -4.54 ± 0.27 | -3.32 ± 0.29
98 | CCAAAGCAAUAUUACGUUUA | -3.26 ± 0.17 | -2.63 ± 0.17
99 | CCAAAGCAAUAUUACGUUUC | -4.24 ± 0.25 | -2.78 ± 0.24
